Values of other authors as cited in article PMC7290751.

Legend:
[1] = target: Kv1.2 (Homo sapiens) (UniProt P16389)
[2] = target: Kv1.3 (Homo sapiens) (UniProt P22001)
UniProt P22001, sequence (P22001 whole entry): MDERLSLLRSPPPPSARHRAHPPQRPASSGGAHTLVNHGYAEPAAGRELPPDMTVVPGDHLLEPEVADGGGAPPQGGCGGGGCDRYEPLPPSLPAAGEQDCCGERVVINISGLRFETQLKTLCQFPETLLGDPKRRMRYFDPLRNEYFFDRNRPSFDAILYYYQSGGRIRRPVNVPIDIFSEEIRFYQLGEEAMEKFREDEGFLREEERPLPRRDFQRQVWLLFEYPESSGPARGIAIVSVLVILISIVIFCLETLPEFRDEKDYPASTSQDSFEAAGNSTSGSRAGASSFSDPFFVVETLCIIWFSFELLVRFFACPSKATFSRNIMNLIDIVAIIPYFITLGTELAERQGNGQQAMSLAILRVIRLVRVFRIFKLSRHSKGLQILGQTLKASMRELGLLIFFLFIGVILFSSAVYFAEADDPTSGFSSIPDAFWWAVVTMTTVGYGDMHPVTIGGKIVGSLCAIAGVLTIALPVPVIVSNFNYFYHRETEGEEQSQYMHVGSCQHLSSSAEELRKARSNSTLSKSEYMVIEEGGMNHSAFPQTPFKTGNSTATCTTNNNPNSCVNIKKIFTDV

UniProt P16389, sequence (P16389 whole entry): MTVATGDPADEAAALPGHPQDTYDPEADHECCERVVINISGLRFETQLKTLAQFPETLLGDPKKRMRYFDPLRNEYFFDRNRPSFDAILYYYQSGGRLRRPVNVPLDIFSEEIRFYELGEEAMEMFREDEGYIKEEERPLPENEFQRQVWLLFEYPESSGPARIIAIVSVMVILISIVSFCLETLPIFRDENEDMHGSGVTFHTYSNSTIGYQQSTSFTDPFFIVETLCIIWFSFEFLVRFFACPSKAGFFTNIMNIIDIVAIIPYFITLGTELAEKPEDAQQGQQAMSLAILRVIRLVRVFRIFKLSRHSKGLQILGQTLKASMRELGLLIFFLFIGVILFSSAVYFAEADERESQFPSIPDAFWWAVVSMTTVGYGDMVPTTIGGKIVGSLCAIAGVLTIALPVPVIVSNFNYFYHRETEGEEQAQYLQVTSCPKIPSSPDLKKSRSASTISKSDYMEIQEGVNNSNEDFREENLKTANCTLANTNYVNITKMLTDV

margatoxin (MgTx) (from UniProt P40755)
Kd [1]: 6.4 pM
Kd [2]: 11.7 pM
